Target: human α-synuclein E57K mutant (6xHis:α-Syn-E57K) (human) (UniProt P37840)

bacterial Hsp90 chaperone with C-terminal hexahistidine (Hsp90:6xHis), sequence (P0A6Z3 whole entry): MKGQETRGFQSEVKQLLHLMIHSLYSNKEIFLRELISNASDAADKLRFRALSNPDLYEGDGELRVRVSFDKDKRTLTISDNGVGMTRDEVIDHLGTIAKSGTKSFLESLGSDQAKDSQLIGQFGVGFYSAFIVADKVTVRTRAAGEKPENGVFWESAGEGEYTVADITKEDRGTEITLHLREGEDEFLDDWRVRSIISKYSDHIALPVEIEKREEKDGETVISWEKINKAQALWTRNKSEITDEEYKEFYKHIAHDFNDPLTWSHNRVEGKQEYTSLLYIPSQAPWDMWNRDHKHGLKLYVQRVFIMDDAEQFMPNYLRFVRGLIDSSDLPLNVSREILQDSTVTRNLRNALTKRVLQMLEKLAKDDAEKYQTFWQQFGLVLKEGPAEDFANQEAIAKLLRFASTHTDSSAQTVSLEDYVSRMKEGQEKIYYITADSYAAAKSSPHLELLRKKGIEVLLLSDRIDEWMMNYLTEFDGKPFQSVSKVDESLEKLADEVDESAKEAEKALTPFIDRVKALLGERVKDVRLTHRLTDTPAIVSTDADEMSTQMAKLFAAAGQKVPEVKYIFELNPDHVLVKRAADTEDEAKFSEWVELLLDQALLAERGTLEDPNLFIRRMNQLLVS

Substance: bacterial Hsp90 chaperone with C-terminal hexahistidine (Hsp90:6xHis) (from UniProt P0A6Z3 1-624) (natural protein)
- insoluble fraction of α-Syn-E57K after incubation under amyloidogenic conditions with free Hsp90 (18.42% without Hsp90); centrifugation, SDS-PAGE, band quantification: 5.67%

From PMC10401628
